Reference: article doi:10.1101/2022.05.31.494262

Biological target: SARS-CoV-2 Nucleocapsid (N) protein, wildtype, SUMO1 modified (SARS-CoV-2 | not stated)
Assay: FRET or BRET

“SARS-CoV-2 Nucleocapsid (N) protein, wildtype, SUMO1 modified” was tested, and the Kd was 460 nM.
